According to patent US20250368738A1 (PHILOGEN S P A, published 2025):

Assays:
[1] = target: T1, murine CD28 on the surface of primary mouse T cells (mouse, UniProt P31041 20-218); assay: flow cytometry on primary mouse T cells, 50 nM antibody
T1 construct: whole, on cells

[2] = target: T2, human CTLA-4 protein containing His6 Tag (SinoBiological, Cat: 11159-H08H) (human, UniProt P16410 36-162); assay: titration ELISA, His6-tagged human CTLA-4 on NiNTA plates, FITC-conjugated antibody
T2 construct: Bought protein

[3] = target: T3, human CD28-ECD (extracellular domain) recombinant fragment containing a C-terminal Avi tag, His6 tag and Fc … (human, site specifically biotinylated using BirA (Avi tag) in the ELISA of Example 2.1); assay: titration ELISA
T3 construct: also called CD28-Fc; CD28-Fc fusion protein

[4] = target: T4, murine CD28 Fc (mouse, UniProt P31041 20-150); assay: titration ELISA, His6-tagged CD28-ECD on NiNTA plates, FITC-conjugated antibody
T4 construct: also called murine CD28 ECD; mouse CD28 Fc; not shown: His6 tag and Fc part of the murine construct

[5] = target: T5, human CD28 expressed on primary human T cells (human, UniProt P10747 19-220); assay: flow cytometry on primary human T cells, 50 nM antibody
T5 construct: whole, on cells; also called primary human T cells expressing CD28
Protocol: Cells were first blocked for 30 minutes in FACS buffer (PBS, 2% FBS and 2 mM EDTA). […] Zombie near infrared (NIR) was used to discriminate live from dead cells.

[6] = target: T1, murine CD28 on the surface of primary …; assay: flow cytometry on primary mouse T cells
Protocol: Cells were first blocked for 30 minutes in FACS buffer (PBS, 2% FBS and 2 mM EDTA). […] Zombie NIR was used to discriminate live from dead cells.

T3 sequence (chain, as listed by the source limits assumed): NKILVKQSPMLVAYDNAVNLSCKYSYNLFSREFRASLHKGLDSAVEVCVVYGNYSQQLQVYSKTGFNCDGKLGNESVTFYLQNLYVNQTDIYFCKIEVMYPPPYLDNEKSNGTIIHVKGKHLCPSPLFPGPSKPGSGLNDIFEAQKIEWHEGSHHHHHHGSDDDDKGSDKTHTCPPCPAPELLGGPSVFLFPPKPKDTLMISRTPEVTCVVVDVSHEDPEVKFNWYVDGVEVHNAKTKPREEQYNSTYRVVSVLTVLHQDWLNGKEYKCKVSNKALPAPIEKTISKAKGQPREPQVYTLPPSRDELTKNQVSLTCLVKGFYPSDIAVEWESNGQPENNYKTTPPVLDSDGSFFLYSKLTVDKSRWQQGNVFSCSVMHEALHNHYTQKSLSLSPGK

Binder | binding result [1] | binding result [2] | binding result [3] | binding result [4] | binding result [5] | binding result [6]
anti-human CEA IgG/AE2P (scFv)2 bispecific antibody in IgG-(scFv)2 (2+2) format (format 1, FIG. 13) (bispecific antibody, also called anti-human CEA IgG/anti-CD28 (scFv)2 bispecific antibody) heavy: not shown light: EIVLTQSPGTLSLSPGERATLSCRASQSVSQNHLAWYQQKPGQAPRLLIYLASRRHTGIPDRFSGSGSGTDFTLTISRLEPEDFAVYYCQQSGRVPWTFGQGTKVEIKRTVAAPSVFIFPPSDEQLKSGTASVVCLLNNFYPREAKVQWKVDNALQSGNSQESVTEQDSKDSTYSLSSTLTLSKADYEKHKVYACEVTHQGLSSPVTKSFNRGEC | binds | – | – | – | – | –
AE2P antibody in IgG4 format (antibody, V domains shown, unconjugated in flow cytometry; also called AE2P IgG4; IgG4 (AE2P)) VH: not shown VL: DIQMTQSPSSLSASVGDRVTITCRASQSISSYLNWYQQKPGKAPKLLIYAASSLQSGVPSRFSGSGSGTDFTLTISSLQPEDFATYYCQQGGMPPDTFGQGTKVEIKR | binds | binds | binds | binds | binds | –
TGN1412 IgG4 (antibody, V domains shown, U.S. Pat. No. 8,709,414'; also called TGN1412 antibody in IgG4 format) VH: QVQLVQSGAEVKKPGASVKVSCKASGYTFTSYYIHWVRQAPGQGLEWIGCIYPGNVNTNYNEKFKDRATLTVDTSISTAYMELSRLRSDDTAVYFCTRSHYGLDWNFDVWGQGTTVTVSS VL: not shown | – | no binding | – | no binding | – | no binding (tested: 50 nM)
